Some results are limits rather than exact numbers.

Here are results for three substances from patent US20250361322A1.

Experiment [1] concerns the target h1-107_r (human/rat chimera). The experiment can be described thus: live cell staining (HEK293, flow cytometry).
For experiment [2], the target named is h108-219_r (human/rat chimera). The experiment in a line: live cell staining (HEK293, flow cytometry).
Experiment [3] has as its target h159-174_r (human/rat chimera) (UniProt P13726). The experiment can be described thus: live cell staining (HEK293, flow cytometry). For orientation: A flow cytometer gives signals particle by particle.
Experiment [4] addresses h159-189_r (human/rat chimera) (UniProt P13726). The experiment in a line: live cell staining (HEK293, flow cytometry).
For experiment [5], the target named is h159-219_r (human/rat chimera). The experiment can be described thus: live cell staining (HEK293, flow cytometry).
Experiment [6] deals with h167-174_r (human/rat chimera) (UniProt P13726). The experiment can be described thus: live cell staining (HEK293, flow cytometry).
The target in experiment [7] is r141-194_h (rat/human chimera) (UniProt P42533). The experiment in a line: live cell staining (HEK293, flow cytometry).
Experiment [8] deals with h1-107_r (human/rat chimera). The experiment can be described thus: live cell staining, flow cytometry, transfected HEK293.
Another experiment addresses hTF_K149N (human) (UniProt P13726). Described as above.
Experiment [9] has as its target r141-194_h (rat/human chimera) (UniProt P42533). Described as above.
Experiment [10] has as its target human Tissue Factor (TF) (human) (UniProt P13726). The experiment in a line: cell-based or functional assay.
For experiment [11], the target named is full-length mouse TF with a C-terminal FLAG tag on Flp-In-CHO cells (mouse) (UniProt P20352). The experiment can be described thus: flow cytometry on CHO cells expressing mouse TF, MFI at 250 nM antibody.

Chain of h1-107_r (human/rat chimera) (chain, as listed by the source mutant limits assumed): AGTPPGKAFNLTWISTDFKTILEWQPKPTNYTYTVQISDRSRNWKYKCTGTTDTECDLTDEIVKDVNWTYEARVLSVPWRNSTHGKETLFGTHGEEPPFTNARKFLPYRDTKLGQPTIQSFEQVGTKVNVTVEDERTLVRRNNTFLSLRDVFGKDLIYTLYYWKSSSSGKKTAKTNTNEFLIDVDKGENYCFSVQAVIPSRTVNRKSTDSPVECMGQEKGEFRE
Chain of h108-219_r (human/rat chimera) (chain, as listed by the source mutant limits assumed): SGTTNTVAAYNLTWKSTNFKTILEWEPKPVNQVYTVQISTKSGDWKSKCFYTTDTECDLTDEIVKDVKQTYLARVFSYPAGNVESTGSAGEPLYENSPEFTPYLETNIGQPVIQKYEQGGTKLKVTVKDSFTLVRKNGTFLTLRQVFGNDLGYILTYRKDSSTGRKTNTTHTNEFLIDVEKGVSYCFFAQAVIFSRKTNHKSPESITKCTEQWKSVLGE

On to “5G9 (humanized TF8-5G9, CNTO 860) (antibody)”, for which the Percentage antibody binding to TF construct relative to hTF in experiment [1], in experiment [2], in experiment [3], in experiment [4], in experiment [5] and in experiment [6] was under 50% throughout. Besides, in experiment [7], the Percentage antibody binding to TF construct relative to hTF is under 50%. Moreover, the percent antibody binding to TF construct relative to hTF in experiment [8] is 41%; in the experiment with hTF_K149N (human), 145%; in experiment [9], 32%.

In experiment [10], Control had a % GM-CSF at 2.56 nM of 88%, a % GM-CSF at 6.4 nM of 86%, a % GM-CSF at 100 nM of 105% and a % IL8 at 2.56 nM of 90%. In [10], this substance displayed a % IL8 at 6.4 nM of 88% and a % IL8 at 16 nM of 84%.

For the substance IgG1 isotype control (antibody), in experiment [11], the MFI at 250 nM was determined as 7400.
